System: Escherichia coli TOP10
Assay: shrunken log2 fold change of peptide-encoding DNA abundance (4.5 h post-induction vs induction); higher = less antimicrobial activity (less host growth inhibition)
Settings: time post-induction: 4.5 h; library: site-saturation at positions 5, 18, 19, 20
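Also: peptides expressed intracellularly from a pBAD plasmid library in pooled LB shake-flask culture, induced with 0.3% L-arabinose, DNA abundance read by NGS, three biological replicates, DESeq2 with apeglm shrinkage.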

Sequence	shrunken log2 fold change
RRIRFRPPRLPRPRPRPYCRPRP	-0.256
RRIRLRPPRLPRPRPRPSTHPRP	-0.59
RRIRSRPPRLPRPRPRPKEKPRP	-0.00788
RRIRMRPPRLPRPRPRPTSSPRP	0.148
RRIRERPPRLPRPRPRPMSNPRP	-0.16
RRIRNRPPRLPRPRPRPVVGPRP	0.392
RRIRARPPRLPRPRPRPSYHPRP	-0.255
RRIRGRPPRLPRPRPRPFSRPRP	0.612
RRIRNRPPRLPRPRPRPNTEPRP	-0.206
RRIRCRPPRLPRPRPRPIRCPRP	-0.00208
RRIRMRPPRLPRPRPRPYPQPRP	0.0818
RRIRFRPPRLPRPRPRPMFHPRP	-0.473
RRIRVRPPRLPRPRPRPANVPRP	-0.597
RRIRPRPPRLPRPRPRPWVQPRP	0.0127
RRIRPRPPRLPRPRPRPTFSPRP	-0.182
RRIRVRPPRLPRPRPRPSNSPRP	-0.826
RRIRGRPPRLPRPRPRPKTTPRP	0.521
RRIRYRPPRLPRPRPRPEPGPRP	0.215
RRIRQRPPRLPRPRPRPAQAPRP	0.0255
RRIRQRPPRLPRPRPRPRMLPRP	-0.0148
RRIRDRPPRLPRPRPRPHKRPRP	-0.0521
RRIRGRPPRLPRPRPRPLLVPRP	0.781
RRIRHRPPRLPRPRPRPASTPRP	-0.357

Sequence	shrunken log2 fold change
RRIRTRPPRLPRPRPRPVCLPRP	-0.398
RRIRYRPPRLPRPRPRPGQMPRP	-0.553
RRIRMRPPRLPRPRPRPEYNPRP	0.25
RRIRARPPRLPRPRPRPYVQPRP	-0.471
RRIRIRPPRLPRPRPRPWWRPRP	-0.0114
RRIRLRPPRLPRPRPRPWLYPRP	-0.541
RRIRMRPPRLPRPRPRPIMAPRP	-0.0196
RRIRYRPPRLPRPRPRPECRPRP	-0.142
RRIRSRPPRLPRPRPRPEHFPRP	-0.246
RRIRTRPPRLPRPRPRPFILPRP	-0.276
RRIRDRPPRLPRPRPRPMMLPRP	-0.0234
RRIRARPPRLPRPRPRPPRTPRP	1.12
RRIRGRPPRLPRPRPRPVVMPRP	0.237
RRIRSRPPRLPRPRPRPICDPRP	0.228
RRIRTRPPRLPRPRPRPPPDPRP	0.58
RRIRFRPPRLPRPRPRPWSDPRP	-0.159
RRIRGRPPRLPRPRPRPRMDPRP	0.59
RRIRWRPPRLPRPRPRPMNKPRP	-0.267
RRIRDRPPRLPRPRPRPSKTPRP	0.0521
RRIRDRPPRLPRPRPRPEWMPRP	0.764
RRIRWRPPRLPRPRPRPTVCPRP	0.00145
RRIRTRPPRLPRPRPRPRLAPRP	0.453
RRIRHRPPRLPRPRPRPNETPRP	0.00408

Sequence	shrunken log2 fold change
RRIRVRPPRLPRPRPRPIVYPRP	-0.0876
RRIRYRPPRLPRPRPRPGTNPRP	-0.163
RRIRSRPPRLPRPRPRPGEQPRP	0.00836
RRIRERPPRLPRPRPRPYHSPRP	-0.133
RRIRGRPPRLPRPRPRPAGSPRP	1.06
RRIRIRPPRLPRPRPRPHYRPRP	-0.204
RRIRWRPPRLPRPRPRPHHAPRP	-0.0735
RRIRQRPPRLPRPRPRPFFFPRP	0.0337
RRIRARPPRLPRPRPRPDQSPRP	0.113
RRIRYRPPRLPRPRPRPIYEPRP	0.0166
RRIRFRPPRLPRPRPRPSMPPRP	-0.331
RRIRFRPPRLPRPRPRPVIIPRP	-0.415
RRIRARPPRLPRPRPRPLYGPRP	-0.203
RRIRCRPPRLPRPRPRPLLWPRP	0.671
RRIRDRPPRLPRPRPRPNMWPRP	-0.152
RRIRFRPPRLPRPRPRPARFPRP	0.1
RRIRTRPPRLPRPRPRPFQNPRP	0.0326
RRIRNRPPRLPRPRPRPDSKPRP	-0.335
RRIRIRPPRLPRPRPRPFWNPRP	-0.277
RRIRDRPPRLPRPRPRPAVVPRP	0.0373
RRIRLRPPRLPRPRPRPAWNPRP	0.133
RRIRCRPPRLPRPRPRPDYWPRP	-0.437
RRIRTRPPRLPRPRPRPNLMPRP	-0.164

Sequence	shrunken log2 fold change
RRIRWRPPRLPRPRPRPEWPPRP	0.956
RRIRERPPRLPRPRPRPSVYPRP	-0.493
RRIRGRPPRLPRPRPRPSKCPRP	-0.313
RRIRSRPPRLPRPRPRPPSVPRP	0.279
RRIRPRPPRLPRPRPRPSDVPRP	-0.249
RRIRERPPRLPRPRPRPFRLPRP	-0.51
RRIRRRPPRLPRPRPRPTACPRP	0.636
RRIRWRPPRLPRPRPRPNCDPRP	0.14
RRIRHRPPRLPRPRPRPWHDPRP	-0.00088
RRIRPRPPRLPRPRPRPRTKPRP	0.518
RRIRNRPPRLPRPRPRPSTGPRP	-0.266
RRIRPRPPRLPRPRPRPYWVPRP	-0.284
RRIRGRPPRLPRPRPRPNLCPRP	-0.0201
RRIRFRPPRLPRPRPRPTFDPRP	-0.138
RRIRHRPPRLPRPRPRPNFKPRP	-0.189
RRIRCRPPRLPRPRPRPPCSPRP	-0.315
RRIRDRPPRLPRPRPRPRHYPRP	0.0264
RRIRGRPPRLPRPRPRPQTFPRP	0.762
RRIRCRPPRLPRPRPRPCGVPRP	0.0257
RRIRPRPPRLPRPRPRPNQPPRP	0.0225
RRIRARPPRLPRPRPRPWVRPRP	-0.323
RRIRQRPPRLPRPRPRPVDHPRP	-0.335

— the supplement of paper PMC9112550, “Optimization of the antimicrobial peptide Bac7 by deep mutational scanning” (BMC Biology, 2022)
